Article PMC12208494, “The zinc metalloprotein MigC impacts cell wall biogenesis through interactions with an essential Mur ligase in Acinetobacter baumannii” (PLOS Pathogens, 2025)

Key:
[1] = target: MurD (A1S_0245), recombinant, purified (Acinetobacter baumannii); experiment: enzyme inhibition curve (HPLC assay of MurD activity); 40 nM MurD; Zn-loaded MigC (1.0 mol equivalent ZnSO4) 0.025-75 µM final, with GTP; enzyme mixture pre-incubated 10 min at 37 °C; 200 µM UMA, 1 mM D-glutamate, 1 mM ATP, 0.1 mg/mL BSA; 25 mM HEPES, 150 mM KCl, 2 mM MgCl2, 2 mM TCEP, pH 7.4, 37 °C; Ki fitted with the maximal inhibition fixed from a global fit
[2] = target: MurD (A1S_0245), recombinant, purified (Acinetobacter baumannii); experiment: enzyme inhibition curve (HPLC assay of MurD activity); as a3 but apo MigC (no Zn) with GTP
[3] = target: MurD (A1S_0245), recombinant, purified (Acinetobacter baumannii)
[4] = target: MurD (A1S_0245), recombinant, purified (Acinetobacter baumannii); experiment: enzyme inhibition curve (HPLC assay of MurD activity); as a3 but apo MigC (no Zn) without GTP

Sequence of MurD (A1S_0245), recombinant, purified (Acinetobacter baumannii) (A3M1C6 whole entry): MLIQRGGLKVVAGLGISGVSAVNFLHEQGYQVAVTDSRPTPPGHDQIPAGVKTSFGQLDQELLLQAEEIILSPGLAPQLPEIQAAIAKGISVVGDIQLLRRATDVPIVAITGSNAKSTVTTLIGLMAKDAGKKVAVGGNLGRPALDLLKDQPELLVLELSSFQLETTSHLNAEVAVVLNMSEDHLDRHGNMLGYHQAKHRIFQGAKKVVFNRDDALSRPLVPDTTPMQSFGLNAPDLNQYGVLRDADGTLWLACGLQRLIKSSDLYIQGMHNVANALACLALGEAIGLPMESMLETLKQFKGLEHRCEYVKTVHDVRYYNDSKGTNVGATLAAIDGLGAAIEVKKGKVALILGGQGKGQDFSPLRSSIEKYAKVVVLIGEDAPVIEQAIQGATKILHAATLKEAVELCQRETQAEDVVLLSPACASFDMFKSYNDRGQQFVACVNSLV

Substance	Ki [1]	Ki [2]	maximal inhibition of MurD activity at saturating Zn-MigC (inhibition curves, 0.025-75 µM MigC, HPLC) [3]	Ki [4]
E99A MigC, recombinant, purified (enzyme)	21 µM			
MigC (A1S_0934), recombinant, purified (enzyme)	32 µM	43 µM	75%	20 µM
